The results in this text go back to US20180155451A1 (published 2018).

T1: FcγRIIa H (human, UniProt P12318 34-217)
T1 construct: extracellular domain; Soluble extracellular domain with C-terminal His tag, expressed in FreeStyle293 cells; also called FcgRIIa H; 2aH; not shown: C-terminal His tag
T1 sequence (looked up): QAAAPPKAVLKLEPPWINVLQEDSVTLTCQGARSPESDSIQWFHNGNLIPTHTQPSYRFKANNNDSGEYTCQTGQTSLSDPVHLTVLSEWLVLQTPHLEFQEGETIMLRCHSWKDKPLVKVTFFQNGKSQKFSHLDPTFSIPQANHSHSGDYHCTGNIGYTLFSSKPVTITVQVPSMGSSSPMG

T2: FcγRIIb (human, UniProt P31994 43-217)
T2 construct: extracellular domain; Soluble extracellular domain with C-terminal His tag, expressed in FreeStyle293 cells; also called FcgRIIb; 2b; not shown: C-terminal His tag
T2 sequence (looked up): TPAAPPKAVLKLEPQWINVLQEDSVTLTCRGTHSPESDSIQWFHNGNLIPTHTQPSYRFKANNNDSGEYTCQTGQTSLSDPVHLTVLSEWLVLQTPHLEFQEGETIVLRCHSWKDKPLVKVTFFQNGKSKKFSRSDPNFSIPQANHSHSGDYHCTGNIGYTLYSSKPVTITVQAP

B1: GpH7-A5/GpH7-B3 variant P238_03V/GpL16-k0 (antibody, human IgG1, kappa)
heavy 1: not shown
heavy 2: not shown
light: DIVMTQSPLSLPVTPGEPASISCQASESLVHSNRNTYLHWYLQKPGQSPQLLIYKVSNRFSGVPDRFSGSGSGTDFTLKISRVEAEDVGVYYCSQNTHVPPTFGQGTKVEIERTVAAPSVFIFPPSDEQLKSGTASVVCLLNNFYPREAKVQWKVDNALQSGNSQESVTEQDSKDSTYSLSSTLTLSKADYEKHKVYACEVTHQGLSSPVTKSFNRGEC
notes: Heterodimerized anti-glypican-3 IgG1; alteration in the GpH7-B3 chain only; also called He Ab
B2: GpH7-A5/GpH7-B3 variant G237_02A/GpL16-k0 (antibody, human IgG1, kappa)
heavy 1: not shown
heavy 2: not shown
light: B1 light
notes: as for B1
B3: GpH7-A5/GpH7-B3 variant S239_05P/GpL16-k0 (antibody, human IgG1, kappa)
heavy 1: not shown
heavy 2: not shown
light: B1 light
notes: as for B1
B4: GpH7-A5/GpH7-B3 variant G237_08L/GpL16-k0 (antibody, human IgG1, kappa)
heavy 1: not shown
heavy 2: not shown
light: B1 light
notes: as for B1
B5: GpH7-A5/GpH7-B3 variant G237_06M/GpL16-k0 (antibody, human IgG1, kappa)
heavy 1: not shown
heavy 2: not shown
light: B1 light
notes: as for B1
B6: GpH7-A5/GpH7-B3 variant P238_14T/GpL16-k0 (antibody, human IgG1, kappa)
heavy 1: not shown
heavy 2: not shown
light: B1 light
notes: as for B1
B7: GpH7-A5/GpH7-B3 variant S267_06M/GpL16-k0 (antibody, human IgG1, kappa)
heavy 1: not shown
heavy 2: not shown
light: B1 light
notes: as for B1
B8: GpH7-A5/GpH7-B3 variant G237_03V/GpL16-k0 (antibody, human IgG1, kappa)
heavy 1: not shown
heavy 2: not shown
light: B1 light
notes: as for B1
B9: GpH7-A5/GpH7-B3 variant G237_19Q/GpL16-k0 (antibody, human IgG1, kappa)
heavy 1: not shown
heavy 2: not shown
light: B1 light
notes: as for B1
B10: GpH7-A5/GpH7-B3 variant P238_06M/GpL16-k0 (antibody, human IgG1, kappa)
heavy 1: not shown
heavy 2: not shown
light: B1 light
notes: as for B1
B11: GpH7-A5/GpH7-B3 variant G236_09D/GpL16-k0 (antibody, human IgG1, kappa)
heavy 1: not shown
heavy 2: not shown
light: B1 light
notes: as for B1
B12: GpH7-A5/GpH7-B3 variant S239_03V/GpL16-k0 (antibody, human IgG1, kappa)
heavy 1: not shown
heavy 2: not shown
light: B1 light
notes: as for B1
B13: GpH7-A5/GpH7-B3 variant L234_10E/GpL16-k0 (antibody, human IgG1, kappa)
heavy 1: not shown
heavy 2: not shown
light: B1 light
notes: as for B1
B14: GpH7-A5/GpH7-B3 variant G237_04F/GpL16-k0 (antibody, human IgG1, kappa)
heavy 1: not shown
heavy 2: not shown
light: B1 light
notes: as for B1
B15: GpH7-A5/GpH7-B3 variant G237_16H/GpL16-k0 (antibody, human IgG1, kappa)
heavy 1: not shown
heavy 2: not shown
light: B1 light
notes: as for B1
B16: GpH7-A5/GpH7-B3 variant G237_13S/GpL16-k0 (antibody, human IgG1, kappa)
heavy 1: not shown
heavy 2: not shown
light: B1 light
notes: as for B1

The first experiment deals with T1, FcγRIIa H. As to the kind of experiment: SPR (Biacore), antibody captured, FcγR as analyte; relative to HeCon Ab. The method, then: (§1) The heterodimerized antibodies He Abs in which one of the H chains was introduced with an alteration were assayed for their binding activities to each activating FcγR and inhibitory FcγR according to the method described in Example 4. […] The activating FcγRs in FIGS. 26, 27, 28, and 29 are FcγRIa, FcγRIIa (R), FcγRIIa (H), and FcγRIIIa, respectively.
(§2) Analysis of interaction between objective antibody and the FcγR was carried out using Biacore T100 (GE Healthcare). HBS-EP+ (GE Healthcare) was used as the running buffer, and the measurement temperature was set to 25° C. Chips produced by immobilizing the antigen peptide by the amine coupling method to a Series S Sencor Chip CM5 (GE Healthcare), or alternatively, chips produced by allowing preliminarily biotinylated antigen peptides to interact with and immobilize onto a Series S Sensor Chip SA (certified) (GE Healthcare) were used. Antibodies of interest were captured onto an antigen peptide-immobilized chip, and allowed to interact to each FcγR diluted with running buffer. To regenerate and repeatedly use the chip, the antibodies captured on the chip were washed off by reacting 10 mM glycine-HCl, pH 1.5.
As to B1, the He/Con_2aH was 89 % of GpH7-A5/GpH7-B3/GpL16-k0 (=100).
On the same count and under the same terms, the figure for B2 is 34 % of GpH7-A5/GpH7-B3/GpL16-k0 (=100).
Take B3: the He/Con_2aH was 33.3 % of GpH7-A5/GpH7-B3/GpL16-k0 (=100).
Take B4: the He/Con_2aH is 13.9 % of GpH7-A5/GpH7-B3/GpL16-k0 (=100).
As for B5, the He/Con_2aH is 17.8 % of GpH7-A5/GpH7-B3/GpL16-k0 (=100).
The same measure, in the same setting: for B6 the value was 37.7 % of GpH7-A5/GpH7-B3/GpL16-k0 (=100); for B7, 34.3 % of GpH7-A5/GpH7-B3/GpL16-k0 (=100); for B8, 39.4 % of GpH7-A5/GpH7-B3/GpL16-k0 (=100).
The same measure, in the same setting: for B9 the value was 26.5 % of GpH7-A5/GpH7-B3/GpL16-k0 (=100); for B10, 47.6 % of GpH7-A5/GpH7-B3/GpL16-k0 (=100).
As for B11, the He/Con_2aH was 89.8 % of GpH7-A5/GpH7-B3/GpL16-k0 (=100).
The same measure, in the same setting: the figure for B12 is 91 % of GpH7-A5/GpH7-B3/GpL16-k0 (=100); for B13 it is 88.3 % of GpH7-A5/GpH7-B3/GpL16-k0 (=100); for B14 it is 41.4 % of GpH7-A5/GpH7-B3/GpL16-k0 (=100).
In the case of B15, the He/Con_2aH was 16.4 % of GpH7-A5/GpH7-B3/GpL16-k0 (=100).
On the same count and under the same terms, for B16 the value was 29.8 % of GpH7-A5/GpH7-B3/GpL16-k0 (=100).

For a further experiment, the target named is T2, FcγRIIb. The experiment is described as above. As for the experimental part:
as §1, §2
As for B1, the He/Con_2b is 120 % of GpH7-A5/GpH7-B3/GpL16-k0 (=100).
Take B2: the He/Con_2b was 124 % of GpH7-A5/GpH7-B3/GpL16-k0 (=100).
For B3, the He/Con_2b is 102 % of GpH7-A5/GpH7-B3/GpL16-k0 (=100).
For the molecule B4, the He/Con_2b was 148 % of GpH7-A5/GpH7-B3/GpL16-k0 (=100).
The same measure, in the same setting: the figure for B5 is 130 % of GpH7-A5/GpH7-B3/GpL16-k0 (=100); for B6 it is 50.7 % of GpH7-A5/GpH7-B3/GpL16-k0 (=100); for B7 it is 210 % of GpH7-A5/GpH7-B3/GpL16-k0 (=100).
Same read-out and setting: the figure for B8 is 61.4 % of GpH7-A5/GpH7-B3/GpL16-k0 (=100).
Take B9: the He/Con_2b is 108 % of GpH7-A5/GpH7-B3/GpL16-k0 (=100).
On the same count and under the same terms, for B10 the value was 174 % of GpH7-A5/GpH7-B3/GpL16-k0 (=100).
Take B11: the He/Con_2b is 167 % of GpH7-A5/GpH7-B3/GpL16-k0 (=100).
Same read-out and setting: the figure for B12 is 108 % of GpH7-A5/GpH7-B3/GpL16-k0 (=100); for B13 it is 118 % of GpH7-A5/GpH7-B3/GpL16-k0 (=100); for B14 it is 149 % of GpH7-A5/GpH7-B3/GpL16-k0 (=100).
For B15, the He/Con_2b is 55.2 % of GpH7-A5/GpH7-B3/GpL16-k0 (=100).
On the same count and under the same terms, the figure for B16 is 111 % of GpH7-A5/GpH7-B3/GpL16-k0 (=100).
